Source: patent publication US20210388110A1 (published 2021)

B1: H0610-G1dh/none-Hi-Kn010G3/L0262-k0 (antibody, human IgG1, kappa)
heavy: not shown
chain: EPKSSDKTHTCPPCPAPELLGGPSVFLFPPKPKDTLMISRTPEVTCVVVDVSHEDPEVKFNWYVDGVEVHNAKTKPREEQYNSTYRVVSVLTVLHQDWLNGKEYKCKVSNKALPAPIEKTISKAKGQPREPQVCTLPPSRDELTKNQVSLWCLVKGFYPSDIAVEWESNGQPENNYKTTPPVLDSDGSFFLYSKLTVDKSRWQQGNVFSCSVMHEALHNRYTQKSLSLSP
light: DIVMTQSPLSLPVTPGEPASISCRSSQPPVHSNRNTYLHWYQQKPGQAPRLLIYKVSNRFSGVPDRFSGSGSGTDFTLKISRVEAEDVGVYYCAQGTQVPYTFGQGTKLEIKRTVAAPSVFIFPPSDEQLKSGTASVVCLLNNFYPREAKVQWKVDNALQSGNSQESVTEQDSKDSTYSLSSTLTLSKADYEKHKVYACEVTHQGLSSPVTKSFNRGEC
notes: single-arm (one Fab)
B2: H0610-G1dh/none-Hi-Kn010G3/L0269-k0 (antibody, human IgG1, kappa)
heavy: not shown
chain: EPKSSDKTHTCPPCPAPELLGGPSVFLFPPKPKDTLMISRTPEVTCVVVDVSHEDPEVKFNWYVDGVEVHNAKTKPREEQYNSTYRVVSVLTVLHQDWLNGKEYKCKVSNKALPAPIEKTISKAKGQPREPQVCTLPPSRDELTKNQVSLWCLVKGFYPSDIAVEWESNGQPENNYKTTPPVLDSDGSFFLYSKLTVDKSRWQQGNVFSCSVMHEALHNRYTQKSLSLSP
light: DIVMTQSPLSLPVTPGEPASISCRSSQSPVHSNRNTYIQWYQQKPGQAPRLLIYKVSNRFSGVPDRFSGSGSGTDFTLKISRVEAEDVGVYYCGQGTQVPYTFGQGTKLEIKRTVAAPSVFIFPPSDEQLKSGTASVVCLLNNFYPREAKVQWKVDNALQSGNSQESVTEQDSKDSTYSLSSTLTLSKADYEKHKVYACEVTHQGLSSPVTKSFNRGEC
notes: single-arm (one Fab)
B3: H0610-G1dh/none-Hi-Kn010G3/L0267-k0 (antibody, human IgG1, kappa)
heavy: not shown
chain: EPKSSDKTHTCPPCPAPELLGGPSVFLFPPKPKDTLMISRTPEVTCVVVDVSHEDPEVKFNWYVDGVEVHNAKTKPREEQYNSTYRVVSVLTVLHQDWLNGKEYKCKVSNKALPAPIEKTISKAKGQPREPQVCTLPPSRDELTKNQVSLWCLVKGFYPSDIAVEWESNGQPENNYKTTPPVLDSDGSFFLYSKLTVDKSRWQQGNVFSCSVMHEALHNRYTQKSLSLSP
light: DIVMTQSPLSLPVTPGEPASISCRPSQSPVHSNRNTYLHWYQQKPGQAPRLLIYKVSNRFSGVPDRFSGSGSGTDFTLKISRVEAEDVGVYYCVQGTQVPYTFGQGTKLEIKRTVAAPSVFIFPPSDEQLKSGTASVVCLLNNFYPREAKVQWKVDNALQSGNSQESVTEQDSKDSTYSLSSTLTLSKADYEKHKVYACEVTHQGLSSPVTKSFNRGEC
notes: single-arm (one Fab)
B4: H0610-G1dh/none-Hi-Kn010G3/L0265-k0 (antibody, human IgG1, kappa)
heavy: not shown
chain: EPKSSDKTHTCPPCPAPELLGGPSVFLFPPKPKDTLMISRTPEVTCVVVDVSHEDPEVKFNWYVDGVEVHNAKTKPREEQYNSTYRVVSVLTVLHQDWLNGKEYKCKVSNKALPAPIEKTISKAKGQPREPQVCTLPPSRDELTKNQVSLWCLVKGFYPSDIAVEWESNGQPENNYKTTPPVLDSDGSFFLYSKLTVDKSRWQQGNVFSCSVMHEALHNRYTQKSLSLSP
light: DIVMTQSPLSLPVTPGEPASISCRSSQSPVHSNRNTYIQWYQQKPGQAPRLLIYKVSNRFSGVPDRFSGSGSGTDFTLKISRVEAEDVGVYYCAQGTQVPYTFGQGTKLEIKRTVAAPSVFIFPPSDEQLKSGTASVVCLLNNFYPREAKVQWKVDNALQSGNSQESVTEQDSKDSTYSLSSTLTLSKADYEKHKVYACEVTHQGLSSPVTKSFNRGEC
notes: single-arm (one Fab)
B5: H0610-G1dh/none-Hi-Kn010G3/TR01L008-k0 (antibody, human IgG1, kappa)
heavy: not shown
chain: EPKSSDKTHTCPPCPAPELLGGPSVFLFPPKPKDTLMISRTPEVTCVVVDVSHEDPEVKFNWYVDGVEVHNAKTKPREEQYNSTYRVVSVLTVLHQDWLNGKEYKCKVSNKALPAPIEKTISKAKGQPREPQVCTLPPSRDELTKNQVSLWCLVKGFYPSDIAVEWESNGQPENNYKTTPPVLDSDGSFFLYSKLTVDKSRWQQGNVFSCSVMHEALHNRYTQKSLSLSP
light: DIVMTQSPLSLPVTPGEPASISCQASESLVHSNRNTYLHWYQQKPGQAPRLLIYKVSNRFRGVPDRFSGSGSGTDFTLKISRVEAEDVGVYYCGQGTQVPYTFGQGTKLEIKRTVAAPSVFIFPPSDEQLKSGTASVVCLLNNFYPREAKVQWKVDNALQSGNSQESVTEQDSKDSTYSLSSTLTLSKADYEKHKVYACEVTHQGLSSPVTKSFNRGEC
notes: single-arm (one Fab)
B6: H0610-G1dh/none-Hi-Kn010G3/L0264-k0 (antibody, human IgG1, kappa)
heavy: not shown
chain: EPKSSDKTHTCPPCPAPELLGGPSVFLFPPKPKDTLMISRTPEVTCVVVDVSHEDPEVKFNWYVDGVEVHNAKTKPREEQYNSTYRVVSVLTVLHQDWLNGKEYKCKVSNKALPAPIEKTISKAKGQPREPQVCTLPPSRDELTKNQVSLWCLVKGFYPSDIAVEWESNGQPENNYKTTPPVLDSDGSFFLYSKLTVDKSRWQQGNVFSCSVMHEALHNRYTQKSLSLSP
light: DIVMTQSPLSLPVTPGEPASISCRPSQSPVHSNRNTYLHWYQQKPGQAPRLLIYKVSNRFSGVPDRFSGSGSGTDFTLKISRVEAEDVGVYYCAQGTQVPYTFGQGTKLEIKRTVAAPSVFIFPPSDEQLKSGTASVVCLLNNFYPREAKVQWKVDNALQSGNSQESVTEQDSKDSTYSLSSTLTLSKADYEKHKVYACEVTHQGLSSPVTKSFNRGEC
notes: single-arm (one Fab)
B7: H0610-G1dh/none-Hi-Kn010G3/L0268-k0 (antibody, human IgG1, kappa)
heavy: not shown
chain: EPKSSDKTHTCPPCPAPELLGGPSVFLFPPKPKDTLMISRTPEVTCVVVDVSHEDPEVKFNWYVDGVEVHNAKTKPREEQYNSTYRVVSVLTVLHQDWLNGKEYKCKVSNKALPAPIEKTISKAKGQPREPQVCTLPPSRDELTKNQVSLWCLVKGFYPSDIAVEWESNGQPENNYKTTPPVLDSDGSFFLYSKLTVDKSRWQQGNVFSCSVMHEALHNRYTQKSLSLSP
light: DIVMTQSPLSLPVTPGEPASISCRSSQSPVHSNRNTYIQWYQQKPGQAPRLLIYKVSNRFSGVPDRFSGSGSGTDFTLKISRVEAEDVGVYYCVQGTQVPYTFGQGTKLEIKRTVAAPSVFIFPPSDEQLKSGTASVVCLLNNFYPREAKVQWKVDNALQSGNSQESVTEQDSKDSTYSLSSTLTLSKADYEKHKVYACEVTHQGLSSPVTKSFNRGEC
notes: single-arm (one Fab)
B8: H0610-G1dh/none-Hi-Kn010G3/L0263-k0 (antibody, human IgG1, kappa)
heavy: not shown
chain: EPKSSDKTHTCPPCPAPELLGGPSVFLFPPKPKDTLMISRTPEVTCVVVDVSHEDPEVKFNWYVDGVEVHNAKTKPREEQYNSTYRVVSVLTVLHQDWLNGKEYKCKVSNKALPAPIEKTISKAKGQPREPQVCTLPPSRDELTKNQVSLWCLVKGFYPSDIAVEWESNGQPENNYKTTPPVLDSDGSFFLYSKLTVDKSRWQQGNVFSCSVMHEALHNRYTQKSLSLSP
light: DIVMTQSPLSLPVTPGEPASISCRSSQSPVHSNRNTYIHWYQQKPGQAPRLLIYKVSNRFSGVPDRFSGSGSGTDFTLKISRVEAEDVGVYYCAQGTQVPYTFGQGTKLEIKRTVAAPSVFIFPPSDEQLKSGTASVVCLLNNFYPREAKVQWKVDNALQSGNSQESVTEQDSKDSTYSLSSTLTLSKADYEKHKVYACEVTHQGLSSPVTKSFNRGEC
notes: single-arm (one Fab)
B9: H0610-G1dh/none-Hi-Kn010G3/L0266-k0 (antibody, human IgG1, kappa)
heavy: not shown
chain: EPKSSDKTHTCPPCPAPELLGGPSVFLFPPKPKDTLMISRTPEVTCVVVDVSHEDPEVKFNWYVDGVEVHNAKTKPREEQYNSTYRVVSVLTVLHQDWLNGKEYKCKVSNKALPAPIEKTISKAKGQPREPQVCTLPPSRDELTKNQVSLWCLVKGFYPSDIAVEWESNGQPENNYKTTPPVLDSDGSFFLYSKLTVDKSRWQQGNVFSCSVMHEALHNRYTQKSLSLSP
light: DIVMTQSPLSLPVTPGEPASISCRSSQPPVHSNRNTYLHWYQQKPGQAPRLLIYKVSNRFSGVPDRFSGSGSGTDFTLKISRVEAEDVGVYYCVQGTQVPYTFGQGTKLEIKRTVAAPSVFIFPPSDEQLKSGTASVVCLLNNFYPREAKVQWKVDNALQSGNSQESVTEQDSKDSTYSLSSTLTLSKADYEKHKVYACEVTHQGLSSPVTKSFNRGEC
notes: single-arm (one Fab)

Biological target: T1, soluble human GPC3 (human, UniProt P51654 25-563, limits assumed)
T1 construct: soluble human GPC3 as analyte; also called glypican 3
Assay: SPR (Biacore), soluble human GPC3

T1 sequence (P51654 other isoform, or with tags, fused parts or gaps limits assumed, form in doubt): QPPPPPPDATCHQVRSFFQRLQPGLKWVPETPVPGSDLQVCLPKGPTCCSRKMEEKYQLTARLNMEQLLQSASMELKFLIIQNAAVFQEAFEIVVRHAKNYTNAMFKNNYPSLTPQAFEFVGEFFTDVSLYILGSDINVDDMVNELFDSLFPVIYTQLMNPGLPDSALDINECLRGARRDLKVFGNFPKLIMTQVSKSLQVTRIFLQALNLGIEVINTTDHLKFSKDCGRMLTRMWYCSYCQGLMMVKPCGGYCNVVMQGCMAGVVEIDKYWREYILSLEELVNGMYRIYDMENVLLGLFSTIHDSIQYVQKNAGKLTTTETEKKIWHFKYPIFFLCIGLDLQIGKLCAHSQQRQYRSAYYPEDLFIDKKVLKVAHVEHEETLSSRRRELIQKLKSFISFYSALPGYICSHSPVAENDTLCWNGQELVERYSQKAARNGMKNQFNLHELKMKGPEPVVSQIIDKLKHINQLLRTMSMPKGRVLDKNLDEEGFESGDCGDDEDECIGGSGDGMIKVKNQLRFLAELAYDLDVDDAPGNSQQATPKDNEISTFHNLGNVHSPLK

Row | Binder | Kd
1 | B1 | 0.211 nM
2 | B2 | 0.459 nM
3 | B3 | 0.179 nM
4 | B4 | 0.0087 nM
5 | B5 | 3.48 nM
6 | B6 | 0.219 nM
7 | B7 | 0.0169 nM
8 | B8 | 0.564 nM
9 | B9 | 0.213 nM
